Numbering of substitutions follows the chain as printed. No end group written: not given here.
T1: ER α (UniProt P03372 1-595, limits assumed)
T1 construct: also called estrogen receptor α; ERα-ERE
T1 sequence (looked up): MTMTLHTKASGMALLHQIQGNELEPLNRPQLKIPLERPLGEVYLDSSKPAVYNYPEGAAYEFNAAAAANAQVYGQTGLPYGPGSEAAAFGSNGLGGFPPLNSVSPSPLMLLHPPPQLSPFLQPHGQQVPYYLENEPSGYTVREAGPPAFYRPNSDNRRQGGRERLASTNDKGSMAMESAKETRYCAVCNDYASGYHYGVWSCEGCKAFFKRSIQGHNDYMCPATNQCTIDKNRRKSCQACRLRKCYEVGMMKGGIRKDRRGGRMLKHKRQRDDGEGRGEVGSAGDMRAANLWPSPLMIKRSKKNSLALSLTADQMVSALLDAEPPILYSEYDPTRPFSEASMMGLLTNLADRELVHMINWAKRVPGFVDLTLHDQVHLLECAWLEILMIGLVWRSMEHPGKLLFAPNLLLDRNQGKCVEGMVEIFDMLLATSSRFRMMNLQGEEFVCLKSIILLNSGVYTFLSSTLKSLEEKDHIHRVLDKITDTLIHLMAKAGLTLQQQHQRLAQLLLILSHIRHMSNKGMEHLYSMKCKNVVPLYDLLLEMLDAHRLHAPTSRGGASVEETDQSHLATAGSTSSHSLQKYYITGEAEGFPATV

T2: pVP16-AR (HSV), P10275
T2 chain: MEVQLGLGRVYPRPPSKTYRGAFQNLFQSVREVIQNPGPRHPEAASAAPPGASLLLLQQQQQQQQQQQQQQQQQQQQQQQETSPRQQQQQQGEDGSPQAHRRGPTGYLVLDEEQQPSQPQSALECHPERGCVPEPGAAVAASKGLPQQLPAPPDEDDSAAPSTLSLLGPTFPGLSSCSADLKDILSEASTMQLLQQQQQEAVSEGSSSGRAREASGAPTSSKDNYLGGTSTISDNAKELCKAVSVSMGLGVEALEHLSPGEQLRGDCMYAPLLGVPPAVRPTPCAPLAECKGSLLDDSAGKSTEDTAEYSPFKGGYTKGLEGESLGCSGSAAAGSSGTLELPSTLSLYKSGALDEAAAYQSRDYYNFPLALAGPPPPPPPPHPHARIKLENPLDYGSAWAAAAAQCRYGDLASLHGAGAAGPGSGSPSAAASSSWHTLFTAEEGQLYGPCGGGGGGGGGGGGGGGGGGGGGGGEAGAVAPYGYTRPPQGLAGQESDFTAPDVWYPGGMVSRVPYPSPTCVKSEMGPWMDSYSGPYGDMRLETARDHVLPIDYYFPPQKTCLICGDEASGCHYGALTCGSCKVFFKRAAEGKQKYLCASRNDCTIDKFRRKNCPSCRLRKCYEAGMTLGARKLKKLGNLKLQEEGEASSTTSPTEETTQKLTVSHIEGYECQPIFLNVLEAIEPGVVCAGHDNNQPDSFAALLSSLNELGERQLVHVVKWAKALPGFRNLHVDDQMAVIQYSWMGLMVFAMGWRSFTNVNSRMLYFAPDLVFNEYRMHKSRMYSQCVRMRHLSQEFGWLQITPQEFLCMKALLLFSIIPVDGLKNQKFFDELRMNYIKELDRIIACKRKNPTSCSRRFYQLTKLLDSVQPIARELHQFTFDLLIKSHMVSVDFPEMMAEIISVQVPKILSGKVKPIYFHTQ

T3: Gal4 transcriptional activation domain (AD) fused in frame with AR (yeast), P10275
T3 chain: T2 chain

T4: estrogen receptor (ER) α as a carboxy-terminal fusion to the Gal4-activation domain (yeast, UniProt P03372 1-595, limits assumed)
T4 sequence (looked up): T1 sequence (looked up)

B1: 4E (peptide)
peptide: SRLVALLKSPWSVSR
B2: 5E (peptide)
peptide: SRLEELLLMDFWRSR
B3: 6E (peptide)
peptide: SSKLWQLLSSPIDSR
B4: 7E (peptide)
peptide: SRSLLMDMLMSDDYVTVSR
B5: 8E (peptide)
peptide: SSRLLACELMYEDADVCSR
B6: 15E (peptide)
peptide: HSHSPLLMALLAPPGG
B7: 10E (peptide)
peptide: SRLEYYLRLGTYESR
B8: 13E (peptide)
peptide: SSCLREILLYGACSR
modifications: not fully specified; cysteine pairing not given here
B9: 17E (peptide)
peptide: SSLRCYLSSSKVDQWACSR
modifications: not fully specified; cysteine pairing not given here
B10: 18E (peptide)
peptide: SSYKPHSLLEWHLLGGTSR
B11: B5G11, P04386 1-147 (peptide)
chain: MKLLSSIEQACDICRLKKLKCSKEKPKCAKCLKNNWECRYSPKTKRSPLTRAHLTEVESRLERLEQLFLLIFPREDLDMILKMDSLQDIKALLTGLFVQDNVNKDAVTDRLASVETDMPLTLRQHRISATSSSEESSNKGQRQLTVSEFRSSVFEQMYLCTGGSLDLQPS
modifications: not checked
B12: B8H3, P04386 1-147 (peptide)
chain: MKLLSSIEQACDICRLKKLKCSKEKPKCAKCLKNNWECRYSPKTKRSPLTRAHLTEVESRLERLEQLFLLIFPREDLDMILKMDSLQDIKALLTGLFVQDNVNKDAVTDRLASVETDMPLTLRQHRISATSSSEESSNKGQRQLTVSEFHSRLRVEVVSWGIGSTCSQANSGRISYDL
modifications: not checked
B13: B8E9, P04386 1-147 (peptide)
chain: MKLLSSIEQACDICRLKKLKCSKEKPKCAKCLKNNWECRYSPKTKRSPLTRAHLTEVESRLERLEQLFLLIFPREDLDMILKMDSLQDIKALLTGLFVQDNVNKDAVTDRLASVETDMPLTLRQHRISATSSSEESSNKGQRQLTVSEFQQCMCAEVKSWLGGSLDLQPS
modifications: not checked
B14: B6F3 (peptide)
chain: MKLLSSIEQACDICRLKKLKCSKEKPKCAKCLKNNWECRYSPKTKRSPLTRAHLTEVESRLERLEQLFLLIFPREDLDMILKMDSLQDIKALLTGLFVQDNVNKDAVTDRLASVETDMPLTLRQHRISATSSSEESSNKGQRQLTVSEFFRATHLLRLLRTDSALDLQPS
B15: B2G1 (peptide)
chain: B14 chain with A152L, T153R, H154R, L156D, R160Q, T161D, D162S, S163F, A164L
B16: B4F6 (peptide)
chain: MKLLSSIEQACDICRLKKLKCSKEKPKCAKCLKNNWECRYSPKTKRSPLTRAHLTEVESRLERLEQLFLLIFPREDLDMILKMDSLQDIKALLTGLFVQDNVNKDAVTDRLASVETDMPLTLRQHRISATSSSEESSNKGQRQLTVSEFSGVPILHMLLMLPSSLDLQPS
B17: B5A2 (peptide)
chain: B16 chain with S150G, G151C, V152S, P153A, H156R, M157Y, M160R, L161S, S163R, S164D
B18: 12PT (peptide)
peptide: SSSPWWSFNLRDMSR
B19: 13PT (peptide)
peptide: SSWPYLPKREEWASR
B20: 14PT (peptide)
peptide: SSGWIEQKLRGSFSR
B21: 15PT (peptide)
peptide: SSSATSIKVQYQISR
B22: 16PT (peptide)
peptide: SSYLTLGKSMMAISR
B23: 17PT (peptide)
peptide: SSWHSRWDLALGFSR
B24: 18PT (peptide)
peptide: SSGYWGGWDYGAGSR
B25: 19PT (peptide)
peptide: SRDNCGAGLWAGCSR
B26: 5PT (peptide)
peptide: SSRMGHVWYDWTFSR
B27: 6PT (peptide)
peptide: SSRLLGDFGGSVVSR
B28: 7PT (peptide)
peptide: SSKYVFGFQVAGGSR
B29: 8PT (peptide)
peptide: SSWAGIKFGKPPHSR
B30: 9PT (peptide)
peptide: SSSWSYGKPTFLSSR
B31: 10PT (peptide)
peptide: SRDTGDMWWGRGGSR
B32: 11PT (peptide)
peptide: SSGRYDPFVLNAASR

molecular target: T1, ER α; experiment: phage isolated on ERα-ERE; Estradiol

Binder	binding result
B1	binds
B2	binds
B3	binds
B4	binds
B5	binds
B6	binds
B7	binds
B8	binds
B9	binds
B10	binds

Molecular target: T2, pVP16-AR (HSV), P10275
Experiment: cell-based or functional assay

Binder	luciferase (mammalian two-hybrid, Huh-7), CYP. (Relative Light Units)	luciferase (mammalian two-hybrid, Huh-7), DHT (Relative Light Units)	luciferase (mammalian two-hybrid, Huh-7), MPA (Relative Light Units)	luciferase (mammalian two-hybrid, Huh-7), RU486 (Relative Light Units)	luciferase (mammalian two-hybrid, Huh-7), no compound (Relative Light Units)
B11	4.46	15.8	8.03	0.105	0.0503
B12	10.5	11.6	11.3	3.88	0.132
B13	16	19.6	18.5	10.2	0.209

Molecular target: T3, Gal4 transcriptional activation domain …
Experiment: cell-based or functional assay

Binder	Fold induction (yeast two-hybrid)	β-galactosidase activity (yeast two-hybrid), CPA	β-galactosidase activity (yeast two-hybrid), DHT	β-galactosidase activity (yeast two-hybrid), No Lig	β-galactosidase activity (yeast two-hybrid), RU
B11	6 fold	0.973	3.96	0.638	0.9
B12	22 fold	0.393	3.81	0.174	0
B13	4 fold	0.563	1.75	0.499	0.8

molecular target: T4, estrogen receptor (ER) α as a …; experiment: cell-based or functional assay; further: test concentration or dose not given here

Binder	Fold Induction (ligand-induced β-galactosidase, two-hybrid)
B14	3 fold
B15	12 fold
B16	5 fold
B17	3 fold

molecular target: T1, ER α; experiment: phage isolated on ERα on plastic; Tamoxifen

Binder	binding result
B18	binds
B19	binds
B20	binds
B21	binds
B22	binds
B23	binds
B24	binds
B25	binds
B26	binds
B27	binds
B28	binds
B29	binds
B30	binds
B31	binds
B32	binds

— patent publication US20040043420A1, “Method of identifying conformation-sensitive binding peptides and uses thereof” (priority 2003, published 2004)
